Experimental data reported in PMC6386500 (PLoS ONE, 2019).
One block for each molecule: values may come before it.

What was measured:
[1] = target: T1, MsCS (citrate synthase from Metallosphaera sedula) (Metallosphaera sedula, UniProt A4YGX6); assay: DTNB absorbance at […] nm, inhibition kinetics; format: biochemical
T1 construct: gene Msed_1522; C-terminal 6xHis tag (pET-30a, NdeI/XhoI), E. coli BL21(DE3)-T1R; homodimer about 85 kDa; modelled domains Met1-Arg370; His214, His253, Asp307 catalytic

[2] = target: Citrate synthase from Metallosphaera sedula (Metallosphaera sedula); assay: SEC; HiPrep 26/60 Sephacryl S-300 HR column, buffer A (40 mM Tris-HCl, pH 8.0), 277 K; eluted at approximately 85 kDa
purified protein [3] = substrate: CC(=O)SCCNC(=O)CCNC(=O)[C@H](O)C(C)(C)COP(=O)(O)OP(=O)(O)OC[C@H]1O[C@@H](n2cnc3c(N)ncnc32)[C@H](O)[C@@H]1OP(=O)(O)O; assay: purified protein; format: biochemical, Metallosphaera sedula; settings: 100 mM potassium phosphate pH 8.0, 150 mM NaCl, 50 uM DTNB, 298 K, oxaloacetate concentration not stated, no inhibitor, 25.0 °C
purified protein [4] = substrate: O=C(O)CC(=O)C(=O)O; assay: purified protein; format: biochemical, Metallosphaera sedula; settings: 0.5 mM acetyl-CoA, 100 mM potassium phosphate pH 8.0, 150 mM NaCl, 50 uM DTNB, 298 K, no inhibitor, 25.0 °C

Ki [1]: 4.41 mM
Molecule: NC(=O)C1=CN([C@@H]2O[C@H](COP(=O)(O)OP(=O)(O)OC[C@H]3O[C@@H](n4cnc5c(N)ncnc54)[C@H](O)[C@@H]3O)[C@@H](O)[C@H]2O)C=CC1 [NADH]

stoichiometry N [2]: 2
Molecule: Citrate synthase from Metallosphaera sedula (enzyme)

Further lines, the molecule ahead of its results:

Molecule: Nc1ncnc2c1ncn2[C@@H]1O[C@H](COP(=O)(O)OP(=O)(O)OP(=O)(O)O)[C@@H](O)[C@H]1O [ATP]
Ki [1]: 4.34 mM

B1: MsCS (citrate synthase from Metallosphaera sedula) (Metallosphaera sedula DSM 5348) (protein)
chain: MELRKGLEDIAIKETSITYIDGELGRLYYRGYSIFDLASFSNFEEVAYLLWYGKLPTRHELDDFKSRLAEERSISEDISTFVKRTAKFGNPMDILRTTVSMMGLEDRSEGDLIGKAIKMTAKIPTIISLIQRTRRNQEFVEPDPSLSHSENFLYMIRGERPSPSDTRVLDVSLMLHMDHEMNASTMACLVVASTLSDIYSSVVAGISALKGPLHGGANSEALKQFMEIETPDNVEKYVMNKLSSGQRLMGFGHRIYKTMDPRAKILKEYANQLSKNEEIKRLFEIANRVEEIGIKILGKRGIYPNVDFYSGLVFYAMGFDPDLFPTIFASARVIGWTAHVDEYLKDNKLIRPKAIYVGDLGKRYVPIEER
notes: C-terminal 6xHis tag (pET-30a, NdeI/XhoI), E. coli BL21(DE3)-T1R; homodimer about 85 kDa; modelled domains Met1-Arg370; His214, His253, Asp307 catalytic
Km (purified protein [3]): 16.5 µM
kcat (purified protein [3]): 8.56 s⁻¹
kcat/Km (purified protein [3]): 519000 M⁻¹ s⁻¹
Km (purified protein [4]): 41.4 µM
kcat (purified protein [4]): 7.62 s⁻¹
